From patent US7029674B2

Tests used:
[1] = target: PD-1 on T cells (species not stated in these experiments)
[2] = target: PD-1 on T cells (species not stated in these experiments); remark: listed apart in the source
[3] = target: PD-1 on T cells (species not stated in these experiments); remark: listed apart in the source
[4] = target: human PD-1 on human T cells or Jurkat T cells (human)
[5] = target: human PD-1 on human T cells or Jurkat T cells (human); remark: listed apart in the source
[6] = target: human PD-1 gamma 2a fusion protein (human PD-1 extracellular region fused to murine Ig gamma2a hinge-CH2-CH3) (human; murine) [IgG part: P01863]; assay: ELISA: biotinylated PD-L1Fc on immobilized human PD-1Fc, streptavidin-HRP
[7] = target: human PD-1 on human T cells or Jurkat T cells (human); remark: listed apart in the source
[8] = target: murine PD-1 on mouse T cells (Balb/c LN T cells, DO11.10 CD4+ T cells, TCR transgenic LN T cells) (murine) (UniProt Q02242)

**Q.** What does the source list for “PD-L1.Fc (species not stated in these experiments) (Fc fusion)”?
**A.** % IL-2R+ (CD25) T cells (flow cytometry), 79 hours [1]: 15 % IL-2R+; % apoptotic T cells (propidium iodide and annexin positive), 72 hours [2]: 12 % apoptotic; % CD69+ T cells (flow cytometry), 72 hours [3]: 42 % CD69+

**Q.** How did the IL-10 secretion (ELISA) by human CD4+ T cells [4] turn out when “human PD-L1.Ig (extracellular region of human PD-L1 fused to murine Ig gamma2a hinge-CH2-CH3) (from UniProt P01863) (Fc fusion)” was run?
**A.** 60 % decrease

**Q.** What about the interferon-γ secretion (ELISA) by human CD4+ T cells [4] of the same substance?
**A.** 80 % decrease

**Q.** What about the proliferation of human CD4+ T cells, suboptimal anti-CD3 (1 µg/ml) with soluble anti-CD28 [5] of the same substance?
**A.** 80 % reduction

**Q.** And the ED50 [6]?
**A.** 0.108 µg/mL

**Q.** And the proliferation (3H-thymidine) of human CD4+ T cells, 96 hours [7]?
**A.** 69 % decrease

**Q.** With mPD-L1.Fc fusion protein as the substance, how does the percentage of dividing cells by propidium iodide staining (DNA content), day 4 (% dividing cells) [8] read?
**A.** 11
